Ends that are not written are not given here. RB = not defined here
Legend:
[1] = tested on: U-251 MG cells; assay: Anchorage-dependent clonogenic assay with X-ray irradiation; type: cell-based, human; details: [RB] = 1 µM, 24 h, clones after 7 days
[2] = Fluorescence quantum yield; type: physicochemical; details: D2O, λexc = 558 nm; reference tetraphenylporphyrin
Description: (§1) Absorption spectra were recorded on a UV-3600 UV–visible double beam spectrophotometer (Shimadzu, Marne-La-Vallée, France). Fluorescence spectra were recorded on a Fluorolog FL3-222 spectrofluorimeter (Horiba Jobin Yvon, Palaiseau, France) equipped with a 450 W Xenon lamp and thermostated cell compartment (25 °C), a UV–visible photomultiplier R928 (Hamamatsu Photonics, Hamamatsu, Japan) and an InGaAs infrared detector (DSS-16A020L Electro-Optical System Inc, Phoenixville, PA, USA). The excitation beam was diffracted by a double ruled grating SPEX monochromator (1200 grooves/mm blazed at 330 nm). The emission beam was diffracted by a double ruled grating SPEX monochromator (1200 grooves/mm blazed at 500 nm). Singlet oxygen emission was detected through a double ruled grating SPEX monochromator (600 grooves/mm blazed at 1 µm) and a long-wave pass (780 nm). All spectra were measured in four-face quartz vials.
The fluorescence quantum yield (Φf) is calculated using Equation (6).(6) Φf=Φf0 . If/If0.OD0/OD. (n/n0)^2 where Φf and Φf0, If and If0, OD and OD0, n and n0 are the quantum yields, fluorescence intensities, optical densities, and refractive indices of the sample and reference, respectively.
Tetraphenylporphyrin (TPP) was chosen as the fluorescence reference standard (Φf0 = 0.11, toluene).

[3] = Singlet oxygen production quantum yield; type: physicochemical; details: D2O, reference Eosin Y
[4] = Ln luminescence lifetime; type: physicochemical; details: D2O, λexc/λdetection = 351/545 nm
[5] = RB fluorescence lifetime; type: physicochemical; details: D2O, λexc = 470 nm; listed as AGuIX Ln@Mal-K(RB)DKPPR (Ln = Tb)
Description: The Ln luminescence lifetime is recorded after excitation at 545 nm for Tb and 313 nm for Gd. The fluorescence lifetime of RB is recorded after excitation at 470 nm ( τf470 ). ^1O2 emission spectra are obtained after excitation at 558 nm (maximum absorption wavelength of RB) but also after excitation at 351 nm for Tb and 273 nm for Gd.
as §1

[6] = Zeta potential; type: physicochemical; details: DLS, Zetasizer Nano-Z, He-Ne 633 nm; pH 7.2 mentioned; listed as AGuIX Ln@Mal-K(RB)DKPPR (Ln = Tb)
Description: The zeta potential (ξ) for each NPs was determined using Zetasizer Nano-Z (Malvern, UK) equipped with a He-Ne laser at 633 nm.

[7] = Hydrodynamic size by TDA-ICP-MS; type: physicochemical; details: Table 4, listed as AGuIX Ln@Mal-K(RB)DKPPR (Ln = Tb)
Description: TDA experiments were conducted using a TDA-ICP-MS hyphenation between a Sciex P/ACE MDQ instrument and a 7700 Agilent ICP-MS. Fused silica capillaries with an inner diameter of 75 µm and outer diameter of 375 µm, and a total length of 64 cm, were coated with hydroxypropylcellulose (HPC) using a solution of 0.05 g mL^−1 in water. Detection was carried out by ICP-MS at m/z = 158 and m/z = 159 for Gd and Tb detection, respectively. Samples were hydrodynamically injected (0.3psi for 3 s), then mobilized using Tris 10 mM and NaCl 125 mM at 0.7 psi. Between runs, the capillary was flushed at 5 psi for 5 min with the mobilization medium. All measurements were performed at least in duplicates.
The detected peak was fitted by a sum of Gaussian distributions using Origin 8.5 software, according to Equation (8).(8) St=∑i=12Ai/σi 2πexp−t−t0^2/2σi2 where t0 is the peak residence time, and […] are the area under the curve and the temporal variance associated with each species i, respectively.
Under these experimental conditions, the molecular diffusion coefficient D is given by(9) D=Rc2t0/24σ^2=2kBT/6πηDh where Rc is the capillary radius, kB is the Boltzmann constant, T is the temperature, η is the viscosity, and Dh is the hydrodynamic diameter of the solute.
Therefore, using Equation (9), the hydrodynamic diameters can be calculated from the temporal variances measured from the fitted Taylorgram.

[8] = target: NRP-1 (Homo sapiens, UniProt O14786); assay: NRP-1 binding, competitive assay; details: printed in the figure, read-out: IC50 ± SD (NRP-1, Figure 12)
Chain of NRP-1 (O14786 22-923): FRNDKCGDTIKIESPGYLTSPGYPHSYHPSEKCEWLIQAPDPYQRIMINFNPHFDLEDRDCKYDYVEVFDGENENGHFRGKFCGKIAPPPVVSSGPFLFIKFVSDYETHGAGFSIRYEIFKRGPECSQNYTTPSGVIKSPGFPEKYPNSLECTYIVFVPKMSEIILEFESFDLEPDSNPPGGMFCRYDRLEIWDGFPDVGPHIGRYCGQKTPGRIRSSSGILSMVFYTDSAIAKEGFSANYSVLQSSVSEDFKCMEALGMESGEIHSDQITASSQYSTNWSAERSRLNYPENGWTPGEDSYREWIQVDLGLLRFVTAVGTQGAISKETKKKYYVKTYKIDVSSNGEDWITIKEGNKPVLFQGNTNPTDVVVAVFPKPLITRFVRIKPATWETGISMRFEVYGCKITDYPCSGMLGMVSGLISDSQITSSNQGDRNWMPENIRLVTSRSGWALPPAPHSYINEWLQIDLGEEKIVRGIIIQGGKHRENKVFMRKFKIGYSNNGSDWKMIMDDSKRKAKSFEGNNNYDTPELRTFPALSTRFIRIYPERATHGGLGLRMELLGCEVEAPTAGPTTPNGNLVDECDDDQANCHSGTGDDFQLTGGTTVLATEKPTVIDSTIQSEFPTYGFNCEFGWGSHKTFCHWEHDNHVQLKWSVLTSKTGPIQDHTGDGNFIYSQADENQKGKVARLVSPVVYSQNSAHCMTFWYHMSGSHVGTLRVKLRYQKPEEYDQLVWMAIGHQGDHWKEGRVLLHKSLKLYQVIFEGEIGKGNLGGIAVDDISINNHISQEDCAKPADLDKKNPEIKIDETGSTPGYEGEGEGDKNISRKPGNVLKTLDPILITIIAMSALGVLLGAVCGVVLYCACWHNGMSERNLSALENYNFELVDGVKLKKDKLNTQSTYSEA
Description: The affinity of AGuIX Ln@Mal-K(RB) and AGuIX Ln@Mal-K(RB)DKPPR to NRP-1 was determined as previously described in terms of IC50 in another study.

In the case of “Mal-K(RB)DKPPR [AGuIX Tb@Mal-K(RB)DKPPR, Mal-K(RB)DKPPR conjugated to thiolated AGuIX Tb NPs by thiol-maleimide click chemistry]”, the “Cell survival (clonogenic capability relative to control)” value ([1]; X-ray 2 Gy (320 kV, 10 mA, 3 Gy/min), fraction of untreated non-irradiated cells, mean, triplicates from 3 experiments (n = 9)) is reported as 0.43, the “decrease of cell growth (clones)” value ([1]; X-ray 2 Gy, p = 0.02) is reported as 57% and the “Fluorescence quantum yield Φf558” value [2] is reported as 0.11. For the same substance, the “^1O2 quantum yield ΦΔ351(Tb)” value ([3]; λexc = 351 nm) was 0.36, the “^1O2 quantum yield ΦΔ558” value ([3]; λexc = 558 nm, listed as AGuIX Ln@Mal-K(RB)DKPPR (Ln = Tb)) was 0.68 and the “Ln luminescence lifetime τL (Tb)” value [4] was 345 µs. The “RB fluorescence lifetime τf470” value [5] was 2.8 ns, the “Zeta potential (ζ)” value [6] was −14 mV and the “percentage of population P1” value [7] was 46%. For the same substance, the “percentage of population P2” value [7] was 54%, the “Size, population P1” value ([7]; Tris 10 mM and NaCl 125 mM) was 5.4 nm and the “Size, population P2” value ([7]; Tris 10 mM and NaCl 125 mM) was 32.0 nm.
For “Mal-K(RB)DKPPR [AGuIX Tb@Mal-K(RB)DKPPR] (not fully specified (N-terminus); printed as AGuIX Tb@Mal-K(RB)DKPPR; reading uncertain) [Mal-K(RB)DKPPR conjugated to thiolated AGuIX Tb NPs by thiol-maleimide click chemistry]”, the IC50 [8] was 6 ± 1.3 nM.

Reference: PMC12114895, “Lanthanides-Based Nanoparticles Conjugated with Rose Bengal for FRET-Mediated X-Ray-Induced PDT” (Pharmaceuticals, 2025)
